Source: the supplement of paper PMC10126150
± gives the standard deviation of the averaged measurements.

Test system: ATP
Test: switch fluorescence ratio, 500 uM ATP over buffer (Cy3 cluster intensity, sum of 5 cycles each) (fold (ratio)); higher = stronger signal-on switching upon ATP binding; sequences stand for … in TCGTCGGCAGCGTCAGATGTGTATAAGAGACAGTTTTTTTTTTTTTTTTTTTTTTTTT…TC
Settings: aptamer strand: ATP DNA aptamer (quencher-CACCTGGGGGAGTATTGCGGAGGAAGG + anchor), 100 nM annealed; ATP concentration: 500 uM
Outline: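 Cy3-labelled switching-strand clusters on a modified Illumina MiSeq flow-cell were annealed to 100 nM quencher-labelled ATP aptamer and imaged first in selection buffer, then after 15 min with 500 uM ATP at 22 °C. NaOH stripping and re-annealing separated each of five buffer/ATP cycles, and clusters outside 100-1000 RFU were excluded. The fluorescence ratio sums target-cycle Cy3 intensity over buffer-cycle Cy3 intensity per cluster and averages it per switch-domain sequence.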
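Note: ATP exposure 15 min at 22 °C before imaging.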

In the case of GACATTTTTA, the switch fluorescence ratio is reported as 0.975 ± 0.022.
Work on GACCCAGGTA yielded a switch fluorescence ratio of 2.75 ± 0.18.
GACCCGCTAA gave a switch fluorescence ratio of 4.18 ± 0.3.
Sequence GACCGAGTTC has a switch fluorescence ratio of 1.005 ± 0.0024.
Sequence GACCGGATTC has a switch fluorescence ratio of 1.06 ± 0.11.
In the case of GACCGGGAGC, the switch fluorescence ratio is reported as 0.995 ± 0.011.
GACCGGGCTC gave a switch fluorescence ratio of 0.97643 ± 0.00079.
With GACCTCGGGA the switch fluorescence ratio was 1.024 ± 0.0028.
GACCTGAGCA was tested, and the switch fluorescence ratio was 1.113 ± 0.0034.
Work on GACCTTAATG yielded a switch fluorescence ratio of 1.05 ± 0.013.
Sequence GACCTTTAAA has a switch fluorescence ratio of 1.02 ± 0.011.
With GACGAAGCAT the switch fluorescence ratio was 5.33 ± 0.82.
GACGACGGAG gave a switch fluorescence ratio of 0.969 ± 0.034.
Work on GACGAGGAGG yielded a switch fluorescence ratio of 1 ± 0.017.
GACGAGTGTG showed a switch fluorescence ratio of 0.98731 ± 0.00011.
For GACGATAGAT, the switch fluorescence ratio was 1.048 ± 0.00083.
In the case of GACGATATGT, the switch fluorescence ratio is reported as 1.07 ± 0.041.
With GACGATGCGG the switch fluorescence ratio was 1.196 ± 0.0058.
In the case of GACGATGTCT, the switch fluorescence ratio is reported as 1.0078 ± 0.00071.
Work on GACGCATTTT yielded a switch fluorescence ratio of 2.18 ± 0.17.
With GACGCGTTTA the switch fluorescence ratio was 1.07 ± 0.034.
Work on GACGCTCAGC yielded a switch fluorescence ratio of 1.39 ± 0.019.
GACGGCTGGT showed a switch fluorescence ratio of 1.01 ± 0.021.
GACGGGATTT was tested, and the switch fluorescence ratio was 1.03 ± 0.03.
GACGGTAGGG gave a switch fluorescence ratio of 0.969 ± 0.051.
GACGGTTAAA showed a switch fluorescence ratio of 1.12 ± 0.11.
Sequence GACGGTTATC has a switch fluorescence ratio of 1.11 ± 0.059.
GACGGTTATT showed a switch fluorescence ratio of 1.002 ± 0.0036.
GACGGTTCGT showed a switch fluorescence ratio of 1.01 ± 0.022.
Work on GACGTATCAA yielded a switch fluorescence ratio of 1.04 ± 0.025.
With GACGTATCGT the switch fluorescence ratio was 0.989 ± 0.032.
GACGTATTGC was tested, and the switch fluorescence ratio was 1.27 ± 0.061.
For GACGTCAGCG, the switch fluorescence ratio was 1.05 ± 0.059.
GACGTTATGT gave a switch fluorescence ratio of 1 ± 0.019.
GACGTTGTGG gave a switch fluorescence ratio of 1.03 ± 0.014.
GACGTTTATG gave a switch fluorescence ratio of 0.949 ± 0.099.
GACTAAAGTG gave a switch fluorescence ratio of 1.01 ± 0.044.
GACTAAATGA gave a switch fluorescence ratio of 1.01 ± 0.016.
Sequence GACTAATAGG has a switch fluorescence ratio of 0.992 ± 0.012.
GACTACCCCT gave a switch fluorescence ratio of 1.234 ± 0.011.
For GACTACTGCA, the switch fluorescence ratio was 1.13 ± 0.046.
Work on GACTAGGTCG yielded a switch fluorescence ratio of 1.16 ± 0.22.
GACTAGTGAC was tested, and the switch fluorescence ratio was 1.01 ± 0.021.
In the case of GACTATTAGA, the switch fluorescence ratio is reported as 0.9918 ± 0.0057.
GACTATTGTT showed a switch fluorescence ratio of 1 ± 0.015.
GACTGAGAAG showed a switch fluorescence ratio of 0.945 ± 0.011.
Work on GACTGAGAGA yielded a switch fluorescence ratio of 1.024 ± 0.0035.
With GACTGAGGTA the switch fluorescence ratio was 0.99 ± 0.031.
GACTGCAGGT showed a switch fluorescence ratio of 1.01 ± 0.033.
GACTGCGGGG showed a switch fluorescence ratio of 0.987 ± 0.038.
For GACTGCTACT, the switch fluorescence ratio was 1.51 ± 0.028.
Work on GACTGGGCGA yielded a switch fluorescence ratio of 1.02 ± 0.029.
Sequence GACTGGGGAT has a switch fluorescence ratio of 0.995 ± 0.025.
GACTGGTATT was tested, and the switch fluorescence ratio was 0.991 ± 0.019.
For GACTGGTTGG, the switch fluorescence ratio was 1.02 ± 0.029.
With GACTGGTTTT the switch fluorescence ratio was 1.01 ± 0.033.
For GACTGTAAAG, the switch fluorescence ratio was 0.967 ± 0.089.
Sequence GACTGTTCCG has a switch fluorescence ratio of 0.958 ± 0.0055.
Work on GACTTAAGGC yielded a switch fluorescence ratio of 1.005 ± 0.0011.
GACTTAGTGC was tested, and the switch fluorescence ratio was 1.05 ± 0.012.
With GACTTAGTGG the switch fluorescence ratio was 1.03 ± 0.077.
For GACTTAGTTG, the switch fluorescence ratio was 0.987 ± 0.0068.
GACTTCGGGA gave a switch fluorescence ratio of 1.13 ± 0.052.
For GACTTGGGCG, the switch fluorescence ratio was 0.957 ± 0.084.
In the case of GACTTGTAGG, the switch fluorescence ratio is reported as 0.9844 ± 0.0049.
Work on GACTTTGGGC yielded a switch fluorescence ratio of 1.01 ± 0.038.
GACTTTTCGA gave a switch fluorescence ratio of 1 ± 0.04.
For GAGAAAATAT, the switch fluorescence ratio was 1 ± 0.038.
Sequence GAGAAAATCT has a switch fluorescence ratio of 1.01 ± 0.033.
GAGAAAGTTC showed a switch fluorescence ratio of 1.06 ± 0.038.
GAGAAATTAT gave a switch fluorescence ratio of 0.9772 ± 0.0067.
In the case of GAGAAGAGGG, the switch fluorescence ratio is reported as 1.04 ± 0.042.
Work on GAGAATAATA yielded a switch fluorescence ratio of 0.988 ± 0.032.
GAGAATCGTC showed a switch fluorescence ratio of 1.05 ± 0.064.
GAGACTAGAT showed a switch fluorescence ratio of 1.01 ± 0.017.
With GAGAGAATAG the switch fluorescence ratio was 1.03 ± 0.034.
For GAGAGAATTT, the switch fluorescence ratio was 1 ± 0.02.
GAGAGAGGCT gave a switch fluorescence ratio of 0.9988 ± 0.0071.
GAGAGAGGGC gave a switch fluorescence ratio of 0.966 ± 0.073.
Work on GAGAGAGGGG yielded a switch fluorescence ratio of 0.984 ± 0.026.
GAGAGAGTGG showed a switch fluorescence ratio of 0.976 ± 0.032.
Work on GAGAGATTGT yielded a switch fluorescence ratio of 1.005 ± 0.0086.
Sequence GAGAGCAAAT has a switch fluorescence ratio of 1.09 ± 0.048.
Sequence GAGAGCCACC has a switch fluorescence ratio of 0.971 ± 0.061.
Sequence GAGAGCCGTT has a switch fluorescence ratio of 1 ± 0.017.
Work on GAGAGCTGCG yielded a switch fluorescence ratio of 1 ± 0.039.
Sequence GAGAGGATAG has a switch fluorescence ratio of 0.98157 ± 0.0003.
For GAGAGGGATG, the switch fluorescence ratio was 1.01 ± 0.043.
In the case of GAGAGGGTGT, the switch fluorescence ratio is reported as 1.05 ± 0.081.
Work on GAGAGGTGGG yielded a switch fluorescence ratio of 1.01 ± 0.024.
With GAGAGGTGTT the switch fluorescence ratio was 1.06 ± 0.039.
Sequence GAGAGTACTT has a switch fluorescence ratio of 0.9945 ± 0.0093.
With GAGAGTCATC the switch fluorescence ratio was 1.035 ± 0.0087.
Work on GAGATAAGGG yielded a switch fluorescence ratio of 0.961 ± 0.061.
Work on GAGATAGCTT yielded a switch fluorescence ratio of 0.955 ± 0.043.
In the case of GAGATAGGGA, the switch fluorescence ratio is reported as 1.01 ± 0.029.
With GAGATATTGG the switch fluorescence ratio was 0.99 ± 0.013.
Work on GAGATCGCC yielded a switch fluorescence ratio of 0.982 ± 0.016.
Work on GAGATCGGTG yielded a switch fluorescence ratio of 0.96 ± 0.023.
For GAGATCTTTG, the switch fluorescence ratio was 0.967 ± 0.015.
GAGATGGTAG gave a switch fluorescence ratio of 0.976 ± 0.0069.
GAGATGTAGG showed a switch fluorescence ratio of 1 ± 0.014.
Sequence GAGATTGTGT has a switch fluorescence ratio of 0.9936 ± 0.0048.
In the case of GAGCAAAGGT, the switch fluorescence ratio is reported as 1.04 ± 0.031.
GAGCAACTGA gave a switch fluorescence ratio of 1.022 ± 0.0018.
In the case of GAGCACGGGT, the switch fluorescence ratio is reported as 1.04 ± 0.053.
GAGCACGTTT showed a switch fluorescence ratio of 0.9963 ± 0.0072.
In the case of GAGCAGATTG, the switch fluorescence ratio is reported as 1.02 ± 0.036.
GAGCAGCTCG gave a switch fluorescence ratio of 0.9995 ± 0.0059.
GAGCATATTG was tested, and the switch fluorescence ratio was 1.03 ± 0.03.
GAGCATGAAA showed a switch fluorescence ratio of 0.974 ± 0.04.
GAGCATTTCC gave a switch fluorescence ratio of 1.1 ± 0.043.
Work on GAGCATTTTT yielded a switch fluorescence ratio of 0.969 ± 0.029.
With GAGCCGTATT the switch fluorescence ratio was 1.02 ± 0.093.
GAGCGCTAGG gave a switch fluorescence ratio of 0.9952 ± 0.0043.
Work on GAGCGGATTT yielded a switch fluorescence ratio of 1.03 ± 0.019.
For GAGCTAGGGG, the switch fluorescence ratio was 1.03 ± 0.041.
In the case of GAGCTAGTCA, the switch fluorescence ratio is reported as 0.975 ± 0.037.
With GAGCTGCAGT the switch fluorescence ratio was 0.947 ± 0.047.
Work on GAGCTTTCCG yielded a switch fluorescence ratio of 1.19 ± 0.26.
Sequence GAGGAAAGCG has a switch fluorescence ratio of 1.04 ± 0.089.
Sequence GAGGAAGATT has a switch fluorescence ratio of 1.02 ± 0.021.
Sequence GAGGAAGGAA has a switch fluorescence ratio of 1.04 ± 0.062.
Sequence GAGGAAGTAT has a switch fluorescence ratio of 0.978 ± 0.0024.
GAGGAAGTCG was tested, and the switch fluorescence ratio was 0.9961 ± 0.0055.
For GAGGACGGGG, the switch fluorescence ratio was 1.01 ± 0.011.
GAGGAGAACG showed a switch fluorescence ratio of 0.949 ± 0.049.
With GAGGAGAGGT the switch fluorescence ratio was 1 ± 0.015.
Work on GAGGAGGGGC yielded a switch fluorescence ratio of 1.02 ± 0.054.
With GAGGATCGGG the switch fluorescence ratio was 0.992 ± 0.023.
GAGGATGAGG showed a switch fluorescence ratio of 0.954 ± 0.0017.
Sequence GAGGATGGTT has a switch fluorescence ratio of 0.964 ± 0.04.
GAGGATTAGC gave a switch fluorescence ratio of 0.99 ± 0.036.
GAGGCAGACT gave a switch fluorescence ratio of 1.23 ± 0.019.
In the case of GAGGCAGCGA, the switch fluorescence ratio is reported as 1.3 ± 0.016.
In the case of GAGGCCGGGG, the switch fluorescence ratio is reported as 0.9956 ± 0.0026.
Sequence GAGGCGGATG has a switch fluorescence ratio of 0.997 ± 0.028.
Sequence GAGGCGTTGC has a switch fluorescence ratio of 1.06 ± 0.05.
GAGGCTATCT gave a switch fluorescence ratio of 1.07 ± 0.0035.
Work on GAGGCTTAAG yielded a switch fluorescence ratio of 1.01 ± 0.019.
GAGGGAAAGG gave a switch fluorescence ratio of 1.02 ± 0.052.
With GAGGGAGGCA the switch fluorescence ratio was 0.994 ± 0.019.
In the case of GAGGGAGGGT, the switch fluorescence ratio is reported as 1.02 ± 0.032.
GAGGGATACA showed a switch fluorescence ratio of 0.99 ± 0.043.
In the case of GAGGGCATGA, the switch fluorescence ratio is reported as 0.993 ± 0.074.
For GAGGGCATTT, the switch fluorescence ratio was 0.985 ± 0.02.
With GAGGGCCGCA the switch fluorescence ratio was 1.05 ± 0.011.
For GAGGGCCGTG, the switch fluorescence ratio was 0.933 ± 0.043.
With GAGGGGAATT the switch fluorescence ratio was 0.983 ± 0.014.
GAGGGGACTT showed a switch fluorescence ratio of 1.09 ± 0.13.
Work on GAGGGGCAGG yielded a switch fluorescence ratio of 1.02 ± 0.074.
With GAGGGGCCGG the switch fluorescence ratio was 0.972 ± 0.057.
In the case of GAGGGGCTGT, the switch fluorescence ratio is reported as 0.981 ± 0.038.
In the case of GAGGGGGCCA, the switch fluorescence ratio is reported as 1.02 ± 0.027.
Sequence GAGGGGGGGT has a switch fluorescence ratio of 1.08 ± 0.34.
In the case of GAGGGGGTCT, the switch fluorescence ratio is reported as 1.01 ± 0.064.
With GAGGGGGTTG the switch fluorescence ratio was 1.01 ± 0.048.
